Measured values published in patent US20120258108A1 (AbbVie / Abbott, published 2012).

Assays:
Recombinant Human DLL4 = Recombinant Human DLL4 (human, UniProt Q9NR61 27-524); experiment: SPR (BIACORE)
Method: (§1) The BIACORE assay (Biacore, Inc, Piscataway, N.J.) determines the affinity of antibodies or DVD-Ig with kinetic measurements of on-rate and off-rate constants. Binding of antibodies or DVD-Ig to a target antigen (for example, a purified recombinant target antigen) was determined by surface plasmon resonance-based measurements with a Biacore® 1000 or 3000 instrument (Biacore® AB, Uppsala, Sweden) using running HBS-EP (10 mM HEPES [pH 7.4], 150 mM NaCl, 3 mM EDTA, and 0.005% surfactant P20) at 25° C. All chemicals were obtained from Biacore® AB (Uppsala, Sweden) or otherwise from a different source as described in the text. For example, approximately 5000 RU of goat anti-mouse IgG, (Fcγ), fragment specific polyclonal antibody (Pierce Biotechnology Inc, Rockford, Ill.) diluted in 10 mM sodium acetate (pH 4.5) is directly immobilized across a CM5 research grade biosensor chip using a standard amine coupling kit according to manufacturer's instructions and procedures at 25 μg/ml. Unreacted moieties on the biosensor surface are blocked with ethanolamine. Modified carboxymethyl dextran surface in flowcell 2 and 4 is used as a reaction surface. Unmodified carboxymethyl dextran without goat anti-mouse IgG in flow cell 1 and 3 is used as the reference surface. For kinetic analysis, rate equations derived from the 1:1 Langmuir binding model are fitted simultaneously to association and dissociation phases of all eight injections (using global fit analysis) with the use of Biaevaluation 4.0.1 software. Purified antibodies or DVD-Ig are diluted in HEPES-buffered saline for capture across goat anti-mouse IgG specific reaction surfaces. Antibodies or DVD-Ig to be captured as a ligand (25 μg/ml) are injected over reaction matrices at a flow rate of 5 μl/min. The association and dissociation rate constants, kₒₙ (M⁻¹ s⁻¹) and koff (s⁻¹) are determined under a continuous flow rate of 25 μl/min. Rate constants are derived by making kinetic binding measurements at different antigen concentrations ranging from 10-200 nM. The equilibrium dissociation constant (M) of the reaction between antibodies or DVD-Igs and the target antigen is then calculated from the kinetic rate constants by the following formula: KD=koff/kₒₙ. Binding is recorded as a function of time and kinetic rate constants are calculated.

[1] = molecular target: Recombinant Human VEGF 165 (human, UniProt P15692-4 27-191); experiment: SPR (BIACORE)
Method: as §1

Chain of Recombinant Human VEGF 165 (P15692 other isoform, or with tags, fused parts or gaps limits assumed): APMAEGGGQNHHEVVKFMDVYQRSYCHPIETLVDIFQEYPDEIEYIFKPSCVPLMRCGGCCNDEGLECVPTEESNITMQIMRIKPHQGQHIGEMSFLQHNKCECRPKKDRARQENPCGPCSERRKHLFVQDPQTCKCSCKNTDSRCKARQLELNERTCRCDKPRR
Chain of Recombinant Human DLL4 (Q9NR61 27-524 limits assumed): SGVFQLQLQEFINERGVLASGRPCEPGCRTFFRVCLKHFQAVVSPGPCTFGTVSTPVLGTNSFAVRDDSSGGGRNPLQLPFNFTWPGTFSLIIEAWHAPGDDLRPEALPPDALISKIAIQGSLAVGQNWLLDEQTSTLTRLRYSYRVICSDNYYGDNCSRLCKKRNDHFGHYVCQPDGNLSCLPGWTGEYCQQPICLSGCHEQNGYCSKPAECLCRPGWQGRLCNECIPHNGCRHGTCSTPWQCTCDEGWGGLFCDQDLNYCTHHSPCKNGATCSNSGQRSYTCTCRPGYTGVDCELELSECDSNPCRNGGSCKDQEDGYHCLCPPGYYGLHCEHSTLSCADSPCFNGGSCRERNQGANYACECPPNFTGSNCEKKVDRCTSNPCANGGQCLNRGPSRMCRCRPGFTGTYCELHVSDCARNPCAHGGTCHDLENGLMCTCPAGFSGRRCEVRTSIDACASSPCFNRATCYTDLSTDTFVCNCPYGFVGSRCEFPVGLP

Kd (Recombinant Human DLL4) | koff (Recombinant Human DLL4) | kon (Recombinant Human DLL4) | Kd [1] | koff [1] | kon [1] | Binder
2.3 nM | 0.00018 s⁻¹ | 76000 M⁻¹ s⁻¹ |  |  |  | AB331 (antibody, human IgG1, kappa, V domains shown, CDR-grafted parent antibody) VH: QVQLQQSGAELMKPGASVKLSCKVTGGSISSSSYYWGWIKQRPGHGLEWIGDIYYTGSTYYNPSLKSKVTITVDTSSNTFYIQLISLTTEDSAIYYCARQALAMGGGSDKWGQGTLLTVSA VL: DYLLTQSPAILSVSPGERVSFSCSGQRLGDKYASWYQQRTNGSPRLVIYEDSKRPSGIPSRFSGGNSGDDATLSINSVESEDIADYYCQAWDRDTGVFGAGTKLELKR
14 nM | 0.0055 s⁻¹ | 390000 M⁻¹ s⁻¹ |  |  |  | AB334 (antibody, human IgG1, kappa, V domains shown, CDR-grafted parent antibody) VH: QVQLQQSGAELMKPGASVKLSCKATGFTFSNFPMAWVKQRPGHGLEWVATISSSDGTTYYRDSVKGKFTITRDNSSNTLYIQLISLTTEDSAIYYCARGYYNSPFAYWGQGTLLTVSA VL: DILMTQSPAILSVSPGERVSFSCRASEDIYSNLAWYQQRTNGAPRLLIYDTNNLADGVPSRFSGGGSGTDFTLSINSVESEDIADYYCQQYNNYPPTFGAGTKLELKR
20 nM | 0.002 s⁻¹ | 100000 M⁻¹ s⁻¹ |  |  |  | AB319 (antibody, human IgG1, kappa, V domains shown, CDR-grafted parent antibody) VH: EVQLVESGGGLVQPANSLKLSCAASGFTFSNFPMAWVRQSPKKGLEWVATISSSDGTTYYRDSVKGRFTISRDNAKNTLYLQMDSLRSEDTATYYCARGYYNSPFAYWGQGVLVTVSS VL: DIRMTQSPASLSASLGETVNIECRASEDIYSNLAWYQQKPGKAPQLLIYDTNNLADGVPSRFSGSGSGTQFSLKINSLQSEDVATYYCQQYNNYPPTFGGGTKLELKR
31 nM | 0.0029 s⁻¹ | 92000 M⁻¹ s⁻¹ | 0.1 nM | 7.7e-05 s⁻¹ | 760000 M⁻¹ s⁻¹ | DVD1713 (bispecific antibody, human IgG1, kappa, DVD-Ig) heavy: not shown light: DIVMTQSPDSLAVSLGERATINCRASEDIYSNLAWYQQKPGQAPKLLIYDTNNLADGVPDRFSGSGSGTDFTLTISSLQAEDVAVYYCQQYNNYPPTFGGGTKVEIKRTVAAPEIVMTQSPATLSVSPGERATLSCSASQDISNYLNWYQQKPGQAPRVLIYFTSSLHSDVPARFSGSGSGTEFTLTISSLQSEDFAVYYCQQYSTVPWTFGQGTRLEIKRTVAAPSVFIFPPSDEQLKSGTASVVCLLNNFYPREAKVQWKVDNALQSGNSQESVTEQDSKDSTYSLSSTLTLSKADYEKHKVYACEVTHQGLSSPVTKSFNRGEC

Further lines, the binder ahead of its results:

Binder | Kd (Recombinant Human DLL4) | koff (Recombinant Human DLL4) | kon (Recombinant Human DLL4) | Kd [1] | koff [1] | kon [1]
AB307 (antibody, human IgG1, kappa, V domains shown, CDR-grafted parent antibody) VH: EVQLLESGGGLVQPGGSLRLSCAVSGGSISSSSYYWGWIRQAPGKGLEWIGDIYYTGSTYYNPSLKSRVTISVDTSKNTFYLQMNSLRAEDTAVYYCARQALAMGGGSDKWGQGTLVTVSS VL: EYVLTQSPGTLSLSPGERATLSCSGQRLGDKYASWYQQKPGQSPRLVIYEDSKRPSGIPDRFSGSNSGDDATLTISRLEPEDFAVFYCQAWDRDTGVFGQGTKVEIKR | 1 nM | 9.5e-05 s⁻¹ | 93000 M⁻¹ s⁻¹ |  |  | 
AB306 (antibody, human IgG1, kappa, V domains shown, CDR-grafted parent antibody) VH: EVQLVESGGGLVQPGRSLRLSCAVSGGSISSSSYYWGWIRQAPGKGLEWIGDIYYTGSTYYNPSLKSRVTISVDTAKNSFYLQMNSLRAEDTAVYYCARQALAMGGGSDKWGQGTLVTVSS VL: DYQLTQSPSSLSASVGDRVTITCSGQRLGDKYASWYQQKPGKSPKLVIYEDSKRPSGIPSRFSGSNSGDDATLTISSLQPEDVATYYCQAWDRDTGVFGQGTKVEIKR | 2.2 nM | 0.00015 s⁻¹ | 68000 M⁻¹ s⁻¹ |  |  | 
AB316 (antibody, human IgG1, kappa, V domains shown, CDR-grafted parent antibody) VH: EVQLVESGGGLVQPANSLKLSCAVSGGSISSSSYYWGWIRQSPKKGLEWIGDIYYTGSTYYNPSLKSRVTISVDTAKNTFYLQMDSLRSEDTATYYCARQALAMGGGSDKWGQGVLVTVSS VL: DYRLTQSPASLSASLGETVNIECSGQRLGDKYASWYQQKPGKSPQLVIYEDSKRPSGIPSRFSGSNSGDQASLKINSLQSEDVATYYCQAWDRDTGVFGGGTKLELKR | 1 nM | 9.2e-05 s⁻¹ | 89000 M⁻¹ s⁻¹ |  |  | 
AB290 (antibody, human IgG1, kappa, V domains shown, CDR-grafted parent antibody) VH: EVTLRESGPALVKPTQTLTLTCTASGFTFSNFPMAWVRQPPGKGLEWVATISSSDGTTYYRDSVKGRFTISRDNSKNQLVLTMTNMDPVDTATYYCARGYYNSPFAYWGQGTTVTVSS VL: DIVMTQSPDSLAVSLGERATINCRASEDIYSNLAWYQQKPGQAPKLLIYDTNNLADGVPDRFSGSGSGTDFTLTISSLQAEDVAVYYCQQYNNYPPTFGGGTKVEIKR | 20 nM | 0.0039 s⁻¹ | 200000 M⁻¹ s⁻¹ |  |  | 
AB287 (antibody, human IgG1, kappa, V domains shown, CDR-grafted parent antibody) VH: EVTLRESGPALVKPTQTLTLTCTVSGGSISSSSYYWGWIRQPPGKGLEWIGDIYYTGSTYYNPSLKSRVTISVDTSKNQFVLTMTNMDPVDTATYYCARQALAMGGGSDKWGQGTTVTVSS VL: DYVLTQSPDSLAVSLGERATINCSGQRLGDKYASWYQQKPGQSPKLVIYEDSKRPSGIPDRFSGSNSGDDATLTISSLQAEDVAVYYCQAWDRDTGVFGGGTKVEIKR | 1.5 nM | 0.00012 s⁻¹ | 84000 M⁻¹ s⁻¹ |  |  | 
AB289 (antibody, human IgG1, kappa, V domains shown, CDR-grafted parent antibody) VH: EVQLVQSGTEVKKPGESLKISCKASGFTFSNFPMAWVRQMPGKGLEWVATISSSDGTTYYRDSVKGQFTISRDNSFNTLFLQWSSLKASDTAMYYCARGYYNSPFAYWGQGTMVTVSS VL: EIVMTQSPATLSVSPGERATLSCRASEDIYSNLAWYQQKPGQAPRLLIYDTNNLADDVPARFSGSGSGTEFTLTISSLQSEDFAVYYCQQYNNYPPTFGQGTRLEIKR | 21 nM | 0.0055 s⁻¹ | 260000 M⁻¹ s⁻¹ |  |  | 
AB285 (antibody, human IgG1, kappa, V domains shown, CDR-grafted parent antibody; also called VEGF (AB057)) VH: EVTLRESGPALVKPTQTLTLTCTASGYTFTNYGMNWVRQPPGKGLEWVGWINTYTGEPTYAADFKRRFTFSLDTSKSQAVLTMTNMDPVDTATYYCAKYPHYYGSSHWYFDVWGQGTTVTVSS VL: DIVMTQSPDSLAVSLGERATINCSASQDISNYLNWYQQKPGQAPKVLIYFTSSLHSGVPDRFSGSGSGTDFTLTISSLQAEDVAVYYCQQYSTVPWTFGGGTKVEIKR |  |  |  | < 0.001 nM | < 1e-06 s⁻¹ | 1e+06 M⁻¹ s⁻¹
AB299 (antibody, human IgG1, kappa, V domains shown, CDR-grafted parent antibody) VH: EVQLVESGGGLVQPGGSLRLSCAASGFTFSNFPMAWVRQAPGKGLEWVATISSSDGTTYYRDSVKGRFTISRDNSKNTLYLQMNSLRAEDTAVYYCARGYYNSPFAYWGQGTLVTVSS VL: DIQMTQSPSSLSASVGDRVTITCRASEDIYSNLAWYQQKPGKAPKLLIYDTNNLADGVPSRFSGSGSGTDFTLTISSLQPEDFATYYCQQYNNYPPTFGQGTKVEIKR | 24 nM | 0.0039 s⁻¹ | 160000 M⁻¹ s⁻¹ |  |  | 
AB309 (antibody, human IgG1, kappa, V domains shown, CDR-grafted parent antibody) VH: EVQLVESGGGLVQPGRSLRLSCAASGFTFSNFPMAWVRQAPGKGLEWVATISSSDGTTYYRDSVKGRFTISRDNAKNSLYLQMNSLRAEDTAVYYCARGYYNSPFAYWGQGTLVTVSS VL: DIQMTQSPSSLSASVGDRVTITCRASEDIYSNLAWYQQKPGKAPKLLIYDTNNLADGVPSRFSGSGSGTDFTLTISSLQPEDVATYYCQQYNNYPPTFGQGTKVEIKR | 22 nM | 0.0028 s⁻¹ | 130000 M⁻¹ s⁻¹ |  |  | 
